Numbering of substitutions follows the chain as printed. Names and notes keep the numbering of the source. Read-outs that look alike come from different tables or passages of the source. Each block holds one binder with its values, some of them ahead of it.
Legend:
[1] = biological target: Human PD-1/PDCD1 Protein (PD-1) (human, UniProt Q15116 25-167, limits assumed); assay: SPR, Biacore 8K; PD-1 captured by anti-His antibody, antibody in flow
Method: The binding affinity of each antibody to human PD-1 was measured with Biacore 8K (Cytiva). Briefly, anti-His Tag antibody was immobilized by amine coupling using Amine Coupling Kit and His Capture Kit, onto 8 channels of a sensor chip (provided with 16 flow cells; one channel consisting of two flow cells) which had carboxymethyl dextran immobilized on a gold film. The immobilization was performed by feeding an activation solution (NHS and EDC mixed in equal amounts) at a flow rate of 10 μl/min for 7 minutes, an immobilization solution at a flow rate of 5 μl/min for 7 minutes, and 1 M ethanolamine hydrochloride-NaOH (pH 8.5) at a flow rate of 10 μl/min for 7 minutes. The buffer used at the time of immobilization was 1×HBS-EP+ Buffer. After the immobilization and before applying a sample, Human PD-1/PDCD1 Protein (PD-1) adjusted to 1 μg/ml with 1×HBS-EP+ Buffer was fed to one of the two flow cells of each channel in an amount of 20 μl at a flow rate of 10 μl/min to thereby capture PD-1 on the sensor chip. As regards the other flow cell, 1×HBS-EP+ Buffer was fed in the same manner to prepare a control flow cell. Each antibody was adjusted to 16 nM with 1×HBS-EP+ Buffer, and then subjected to 2-fold 7-step serial dilution using 1×HBS-EP+ Buffer. The resultant sample solution (30 μl) was fed to each flow cell at a flow rate of 10 μl/min and the response was measured. After subtracting the response of control flow cell from the response of the flow cell which was allowed to capture the ligand, KD value was calculated by curve fitting using Biacore 8K Evaluation Software.

[2] = biological target: T1, human PD-1 (wild-type), expressed on cells (human, UniProt Q15116 25-288); assay: cell-based or functional assay
[3] = biological target: T1, human PD-1 (wild-type), expressed on …; assay: cell-based or functional assay; remark: listed apart in the source
[4] = biological target: T1, human PD-1 (wild-type), expressed on …; assay: cell-based or functional assay; remark: listed apart in the source

Chain of Human PD-1/PDCD1 Protein (PD-1) (Q15116 25-167 limits assumed): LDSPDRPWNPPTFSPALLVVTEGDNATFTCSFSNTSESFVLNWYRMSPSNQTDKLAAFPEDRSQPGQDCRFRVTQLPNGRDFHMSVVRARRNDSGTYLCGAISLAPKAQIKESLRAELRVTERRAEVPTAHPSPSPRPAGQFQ
T1 sequence (Q15116 25-288 limits assumed): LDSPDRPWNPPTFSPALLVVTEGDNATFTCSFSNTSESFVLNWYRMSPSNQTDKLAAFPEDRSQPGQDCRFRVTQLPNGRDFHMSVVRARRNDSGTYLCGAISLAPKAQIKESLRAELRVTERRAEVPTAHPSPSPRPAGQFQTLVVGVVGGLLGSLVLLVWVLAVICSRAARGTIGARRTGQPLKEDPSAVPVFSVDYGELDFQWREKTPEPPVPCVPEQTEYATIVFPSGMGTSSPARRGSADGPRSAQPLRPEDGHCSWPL

B1: chimeric HM242-IgG1-K322A (antibody)
heavy: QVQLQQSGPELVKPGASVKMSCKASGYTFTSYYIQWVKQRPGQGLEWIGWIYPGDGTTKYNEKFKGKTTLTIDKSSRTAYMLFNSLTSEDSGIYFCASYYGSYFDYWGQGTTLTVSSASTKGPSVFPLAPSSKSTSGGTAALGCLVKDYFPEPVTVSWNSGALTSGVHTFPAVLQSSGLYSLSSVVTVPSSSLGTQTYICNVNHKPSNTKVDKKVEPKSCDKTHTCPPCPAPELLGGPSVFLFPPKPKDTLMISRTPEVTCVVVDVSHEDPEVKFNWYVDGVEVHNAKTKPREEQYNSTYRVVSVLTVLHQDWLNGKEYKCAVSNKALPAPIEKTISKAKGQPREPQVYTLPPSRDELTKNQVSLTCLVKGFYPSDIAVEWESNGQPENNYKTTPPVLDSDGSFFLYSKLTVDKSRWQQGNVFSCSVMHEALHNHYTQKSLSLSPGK
light: DIQMTQTTSSLSASLGDRVTISCRASQDISNYLNWYQQKPDGTVTLLIYYTSKLHSGVPSRFSGSGSGTDYSLTITNLEQKDFATYFCQQSSTLPFTFGGGTKLEIKRTVAAPSVFIFPPSDEQLKSGTASVVCLLNNFYPREAKVQWKVDNALQSGNSQESVTEQDSKDSTYSLSSTLTLSKADYEKHKVYACEVTHQGLSSPVTKSFNRGEC
notes: Mouse Fab region with the Fc region of human IgG1-K322A
- Kd [1]: < 0.051 nM
- Cell-cell contact assay [2]: 13.7 ng/mL

B2: chimeric HM297-IgG1-K322A (antibody)
heavy: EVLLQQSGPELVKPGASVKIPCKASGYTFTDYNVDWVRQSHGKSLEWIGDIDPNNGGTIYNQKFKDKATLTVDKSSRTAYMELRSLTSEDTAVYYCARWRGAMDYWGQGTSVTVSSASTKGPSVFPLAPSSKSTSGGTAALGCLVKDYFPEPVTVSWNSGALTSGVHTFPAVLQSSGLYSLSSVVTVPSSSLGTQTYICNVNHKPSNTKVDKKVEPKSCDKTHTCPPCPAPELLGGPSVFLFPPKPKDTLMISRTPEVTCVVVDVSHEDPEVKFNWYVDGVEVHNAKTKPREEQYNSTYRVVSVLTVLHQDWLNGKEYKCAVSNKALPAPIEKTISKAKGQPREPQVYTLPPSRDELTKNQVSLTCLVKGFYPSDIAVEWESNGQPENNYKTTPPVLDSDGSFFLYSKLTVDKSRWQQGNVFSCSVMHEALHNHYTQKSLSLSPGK
light: DVQMTQTTSSLSASLGDRVTISCRASQDIDNYLKWYQQKPDGTVKLLIYDTSRLHSGVPSRFSGSGSGTDYSLTISNLKQEDIATYFCQQGYTLPWTFGGGTRLEIKRTVAAPSVFIFPPSDEQLKSGTASVVCLLNNFYPREAKVQWKVDNALQSGNSQESVTEQDSKDSTYSLSSTLTLSKADYEKHKVYACEVTHQGLSSPVTKSFNRGEC
notes: as for B1
- Kd [1]: 0.0493 nM
- Cell-cell contact assay [3]: 78.3 ng/mL

B7: HM268-M8 (antibody, human IgG1, V domains shown)
VH: QVQLVQSGPEVKKPGASVKVVCKASGYTFTSYYIQWVRQVPGQGLEWMGWIYFGDASTKYNEKFKGRVTMTADTSTSTAYMELRSLRSDDTAVYYCASYYGSYFDYWGQGTTVTVSS
VL: DIQMTQSPSSLSASVGDRVTITCRASQDISNYLNWYQQKPDGTVKLLIYSTSRLHSGVPSRFSGSGSGTDYTLTISSLQPEDFATYYCQQGSTLPFTFGQGTKLEIK
notes: also called humanized HM268, VH ver.M / VL ver.8
- Kd [1]: 0.00359 nM
- Cell-cell contact assay [4]: 75.8 ng/mL

B8: HM242-A2 (antibody, human IgG1, V domains shown)
VH: QVQLVQSGPELVKPGASVKVVCKASGYTFTSYYIQWVKQRPGQGLEWIGWIYPGDGTTKYNEKFKGKTTLTIDKSTRTAYMELRSLRSDDTAVYYCASYYGSYFDYWGQGTLVTVSS
VL: B7 VL with K45T, S50Y, R53K, G91S
notes: also called humanized HM242, VH ver.A / VL ver.2
- Kd [1]: < 0.0408 nM
- Cell-cell contact assay [2]: 16.7 ng/mL

B9: humanized HM242-C3-IgG1-K322A (antibody, V domains shown)
VH: B8 VH with L11V, V12K, K67R, T68V, L70M
VL: DIQMTQSPSSLSASVGDRVTITCRASQDISNYLNWYQQKPGKAPKLLIYYTSKLHSGVPSRFSGSGSGTDYTLTISSLQPEDFATYYCQQSSTLPFTFGQGTKLEIKR
- Kd [1]: < 0.0186 nM
- Cell-cell contact assay [2]: 23.7 ng/mL

B11: HM242-B1 (antibody, human IgG1, V domains shown)
VH: B8 VH with L11V, V12K, K38R, R40V, I48M
VL: B7 VL with S7T, P8T, K45T, S50Y, R53K, Q79E, P80Q, E81K, G91S
notes: also called humanized HM242, VH ver.B / VL ver.1
- Kd [1]: < 0.0448 nM
- Cell-cell contact assay [2]: 7.15 ng/mL

B12: HM242-D1 (antibody, human IgG1, V domains shown)
VH: B7 VH with F53P, A56G, S57T, A72I, T112L
VL: B7 VL with S7T, P8T, K45T, S50Y, R53K, Q79E, P80Q, E81K, G91S
notes: also called humanized HM242, VH ver.D / VL ver.1
- Kd [1]: 0.103 nM
- Cell-cell contact assay [2]: 24.8 ng/mL

B14: humanized HM242-D3-IgG1-K322A (antibody, V domains shown)
VH: B7 VH with F53P, A56G, S57T, A72I, T112L
VL: B9 VL
- Kd [1]: < 0.0492 nM
- Cell-cell contact assay [2]: 31.5 ng/mL

B15: HM242-D2 (antibody, human IgG1, V domains shown)
VH: B7 VH with F53P, A56G, S57T, A72I, T112L
VL: B7 VL with K45T, S50Y, R53K, G91S
notes: also called humanized HM242, VH ver.D / VL ver.2
- Kd [1]: < 0.0603 nM
- Cell-cell contact assay [2]: 33.3 ng/mL

Continued, values first:

- Kd [1]: < 0.0179 nM
- Cell-cell contact assay [2]: 19 ng/mL
B3: HM242-C1 (antibody, human IgG1, V domains shown)
VH: B8 VH with L11V, V12K, K67R, T68V, L70M
VL: B7 VL with S7T, P8T, K45T, S50Y, R53K, Q79E, P80Q, E81K, G91S
notes: also called humanized HM242, VH ver.C / VL ver.1

- Kd [1]: < 0.0356 nM
- Cell-cell contact assay [2]: 13.1 ng/mL
B4: HM242-A1 (antibody, human IgG1, V domains shown)
VH: B8 VH
VL: B7 VL with S7T, P8T, K45T, S50Y, R53K, Q79E, P80Q, E81K, G91S
notes: also called humanized HM242, VH ver.A / VL ver.1

- Kd [1]: < 0.0211 nM
- Cell-cell contact assay [2]: 18.1 ng/mL
B5: HM242-C2 (antibody, human IgG1, V domains shown)
VH: B8 VH with L11V, V12K, K67R, T68V, L70M
VL: B7 VL with K45T, S50Y, R53K, G91S
notes: also called humanized HM242, VH ver.C / VL ver.2

- Kd [1]: < 0.0217 nM
- Cell-cell contact assay [2]: 18.8 ng/mL
B6: HM242-A3 (antibody, human IgG1, V domains shown)
VH: B8 VH
VL: B7 VL with D41G, G42K, T43A, V44P, S50Y, R53K, G91S
notes: also called humanized HM242, VH ver.A / VL ver.3

- Kd [1]: < 0.0307 nM
- Cell-cell contact assay [2]: 20.8 ng/mL
B10: HM242-B3 (antibody, human IgG1, V domains shown)
VH: B8 VH with L11V, V12K, K38R, R40V, I48M
VL: B7 VL with D41G, G42K, T43A, V44P, S50Y, R53K, G91S
notes: also called humanized HM242, VH ver.B / VL ver.3

- Kd [1]: < 0.0315 nM
- Cell-cell contact assay [2]: 8.83 ng/mL
B13: HM242-B2 (antibody, human IgG1, V domains shown)
VH: B8 VH with L11V, V12K, K38R, R40V, I48M
VL: B7 VL with K45T, S50Y, R53K, G91S
notes: also called humanized HM242, VH ver.B / VL ver.2
